Two substances from PMC2586147 can be followed below.

The assay deals with K401-BIO-H6 R210K (Drosophila) (UniProt P17210). As to the kind of experiment: AUC.

For the substance “K401 (from UniProt P17210 1-401) (domain or fragment)”, the stoichiometry N was determined as 2.

On to “K401-BIO-H6 R210K (from UniProt P17210 1-401) (domain or fragment)”, for which the stoichiometry N worked out at 2.
